Results reported in patent US20070128190A1 (GLENMARK PHARMACEUTICALS S A, published 2007).

What follows are binders tested against T1, human platelet α2β1 integrin (immobilized on microtiter plates) (human, UniProt P17301 30-1181; P05556 21-798) (assay: competition with Eu-TMC-2206 on human platelet α2β1-coated plate).
T1 construct: plates custom-coated with human platelet α2β1 by GTI Inc; also called immobilized α2β1 integrin; α2β1-coated plates
T1 sequence (P17301 30-1181 E534K limits assumed, chain 1 of 2): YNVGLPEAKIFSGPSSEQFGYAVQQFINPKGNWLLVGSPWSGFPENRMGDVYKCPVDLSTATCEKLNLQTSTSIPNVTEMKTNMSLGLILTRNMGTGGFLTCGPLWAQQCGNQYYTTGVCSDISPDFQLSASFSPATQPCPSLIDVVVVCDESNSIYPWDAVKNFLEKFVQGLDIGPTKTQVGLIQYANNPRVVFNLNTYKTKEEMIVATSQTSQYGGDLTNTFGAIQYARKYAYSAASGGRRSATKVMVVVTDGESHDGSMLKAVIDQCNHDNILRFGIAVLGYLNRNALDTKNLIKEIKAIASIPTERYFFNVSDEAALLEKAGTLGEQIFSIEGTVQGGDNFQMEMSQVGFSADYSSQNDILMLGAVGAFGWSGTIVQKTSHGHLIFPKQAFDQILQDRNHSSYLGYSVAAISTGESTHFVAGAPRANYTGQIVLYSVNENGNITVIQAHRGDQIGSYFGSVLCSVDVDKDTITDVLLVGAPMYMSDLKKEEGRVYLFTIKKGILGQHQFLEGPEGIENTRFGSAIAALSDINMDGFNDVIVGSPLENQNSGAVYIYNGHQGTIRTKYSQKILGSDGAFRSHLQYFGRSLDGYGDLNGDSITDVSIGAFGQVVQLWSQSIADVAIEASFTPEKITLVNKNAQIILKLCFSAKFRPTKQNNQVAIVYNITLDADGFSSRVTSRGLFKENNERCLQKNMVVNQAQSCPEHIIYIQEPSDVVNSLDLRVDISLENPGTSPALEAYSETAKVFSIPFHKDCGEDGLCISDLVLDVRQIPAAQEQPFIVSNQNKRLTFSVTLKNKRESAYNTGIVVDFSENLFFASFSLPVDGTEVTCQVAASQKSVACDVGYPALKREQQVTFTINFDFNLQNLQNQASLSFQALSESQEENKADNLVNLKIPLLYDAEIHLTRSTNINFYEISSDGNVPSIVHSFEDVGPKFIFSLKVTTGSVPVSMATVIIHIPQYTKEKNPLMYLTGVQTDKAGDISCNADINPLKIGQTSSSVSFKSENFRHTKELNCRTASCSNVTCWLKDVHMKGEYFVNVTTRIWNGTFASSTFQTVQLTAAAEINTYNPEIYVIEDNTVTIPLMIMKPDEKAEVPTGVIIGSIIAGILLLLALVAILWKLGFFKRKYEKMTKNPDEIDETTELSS
T1 sequence (P05556 21-798 limits assumed, chain 2 of 2): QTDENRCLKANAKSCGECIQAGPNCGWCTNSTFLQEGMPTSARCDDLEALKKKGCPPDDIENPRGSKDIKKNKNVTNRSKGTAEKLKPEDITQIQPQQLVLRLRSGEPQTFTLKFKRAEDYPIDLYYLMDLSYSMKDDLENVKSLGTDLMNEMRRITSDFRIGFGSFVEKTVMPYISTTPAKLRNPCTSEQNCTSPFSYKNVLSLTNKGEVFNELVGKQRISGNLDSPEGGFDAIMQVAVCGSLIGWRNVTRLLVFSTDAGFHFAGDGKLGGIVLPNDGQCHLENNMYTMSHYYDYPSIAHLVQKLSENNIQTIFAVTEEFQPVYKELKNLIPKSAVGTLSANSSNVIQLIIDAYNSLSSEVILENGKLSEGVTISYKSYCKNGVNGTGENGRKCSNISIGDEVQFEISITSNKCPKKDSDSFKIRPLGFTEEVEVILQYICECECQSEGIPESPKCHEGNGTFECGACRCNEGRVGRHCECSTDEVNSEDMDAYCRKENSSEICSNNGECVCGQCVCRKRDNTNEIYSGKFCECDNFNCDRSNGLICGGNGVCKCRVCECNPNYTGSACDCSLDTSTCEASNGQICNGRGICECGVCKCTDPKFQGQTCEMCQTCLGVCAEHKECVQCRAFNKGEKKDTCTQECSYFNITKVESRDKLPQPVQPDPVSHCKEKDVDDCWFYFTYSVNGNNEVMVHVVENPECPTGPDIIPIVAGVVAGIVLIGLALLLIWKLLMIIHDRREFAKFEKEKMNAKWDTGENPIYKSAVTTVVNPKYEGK

| fold decrease in potency as measured by Ki | Ki | Binder |
| --- | --- | --- |
| 3.3 fold | – | humanized TMC-2206 variant hVH1.0/hVL9.0 (antibody, V domains shown, human IgG1/κ; also called change of L49 to the human lysine) VH: QVQLQESGPGLVKPSETLSLTCTVSGFSLTNYGIHWVRQPPGKGLEWLGVIWARGFTNYNSALMSRLTISKDNSKNQVSLKLSSVTAADTAVYFCARANDGVYYAMDYWGQGTLVTVSS VL: QFVLTQSPAFLSVTPGEKVTITCSANSSVNYIHWYQQKPDQAPKKWIKDTSKLASGVPSRFSGSGSGTDYTFTISSLEAEDAATYYCQQWTTNPLTFGQGTKVEIK |
| – | 0.41 nM | TMC-2206 VH D100R variant antibody (antibody, V domains shown, variant murine VH-containing antibody; also called reverse charge mutant D100R) VH: QVQLKESGPGLVAPSQSLSITCTVSGFSLTNYGIHWVRQPPGKGLEWLGVIWARGFTNYNSALMSRLIITKDNSQSQVFLKMNSLQPDDSATYFCARANRGVYYAMDYWGQGTSVTVSS VL: QFVLTQSPAFLSASPGEKVTMTCSANSSVNYIHWYQQKSGTSPKKWIYDTSKLASGVPVRFSGSGSGTSYSLTISSMETEDAATYYCQQWTTNPLTFGAGTRVELK |

Molecular target: T1, human platelet α2β1 integrin …
Assay: as above
Remark: another data set of the same source
Procedure: (§1) Each labeled antibody mixture was applied to a separate PD-10 column (GE Biosciences, Piscataway, N.J.) pre-equilibrated with Running Buffer (50 mM Tris, pH 7.4 and 138 mM NaCl). Fractions (0.5 mL) were collected and assayed for total protein (Bradford reagent; Bio-Rad Laboratories, Hercules, Calif.) using a SpectraMax 384 absorbance plate reader and for europium after 1:10.000 dilution in DELFIA Enhancement Solution (Perkin-Elmer) by time-resolved fluorescence (TRF) using a Victor2 multi-label plate reader (Perkin Elmer). The fractions that were positive for both protein and Eu label were pooled and applied to new PD-10 columns and samples collected and assayed for total protein and for europium content by TRF calibrated against a europium standard solution (Perkin-Elmer) to calculate the fluor: protein ratio. […] After incubating the sealed plates for 1 hr at 37° C. to allow binding to reach equilibrium, 2 μL samples were transferred from each well into a fresh well containing DELFIA Enhancement Solution (100 μL/well; Perkin-Elmer) for the measurement of free (unbound) label. Enhancement Solution (100 μL/well) was added to the emptied wells for the measurement of bound label. The plate was shaken (Titer Plate Shaker speed setting of 5 for 5 minutes at room temperature) and time-resolved fluorescent (TRF) intensities were read using a Victor2 multi-label plate reader (Perkin-Elmer Wallac, Boston, Mas.).

| Binder | Ki | fold shift in potency compared to the hVH1.0, hVL1.0 variant |
| --- | --- | --- |
| humanized TMC-2206 variant hVH1.0/hVL3.0 (antibody, human IgG1, V domains shown, human IgG1/κ constant regions; also called VH1.0/VL3.0) VH: QVQLQESGPGLVKPSETLSLTCTVSGFSLTNYGIHWVRQPPGKGLEWLGVIWARGFTNYNSALMSRLTISKDNSKNQVSLKLSSVTAADTAVYFCARANDGVYYAMDYWGQGTLVTVSS VL: QFVLTQSPAFLSVTPGEKVTITCSANSSVNYIHWYQQKPDQAPKLLIYDTSKLASGVPSRFSGSGSGTDYTFTISSLEAEDAATYYCQQWTTNPLTFGQGTKVEIK | 0.64 nM | 1.9 fold |
| humanized TMC-2206 variant hVH3.0/hVL1.0 (antibody, human IgG1, V domains shown, human IgG1/κ constant regions) VH: QVQLQESGPGLVKPSETLSLTCTVSGFSLTNYGIHWVRQPPGKGLEWLGVIWARGFTNYNSALMSRVTISVDTSKNQFSLKLSSVTAADTAVYFCARANDGVYYAMDYWGQGTLVTVSS VL: QFVLTQSPAFLSVTPGEKVTITCSANSSVNYIHWYQQKPDQAPKKWIYDTSKLASGVPSRFSGSGSGTDYTFTISSLEAEDAATYYCQQWTTNPLTFGQGTKVEIK | 12 nM | 36 fold |
| humanized TMC-2206 variant hVH4.0/hVL1.0 (antibody, human IgG1, V domains shown, human IgG1/κ constant regions) VH: QVQLQESGPGLVKPSETLSLTCTVSGFSLTNYGIHWIRQPPGKGLEWIGVIWARGFTNYNSALMSRLTISKDNSKNQVSLKLSSVTAADTAVYFCARANDGVYYAMDYWGQGTLVTVSS VL: QFVLTQSPAFLSVTPGEKVTITCSANSSVNYIHWYQQKPDQAPKKWIYDTSKLASGVPSRFSGSGSGTDYTFTISSLEAEDAATYYCQQWTTNPLTFGQGTKVEIK | 0.44 nM | 1.3 fold |
| humanized TMC-2206 variant hVH1.0/hVL4.0 (antibody, human IgG1, V domains shown, human IgG1/κ constant regions) VH: QVQLQESGPGLVKPSETLSLTCTVSGFSLTNYGIHWVRQPPGKGLEWLGVIWARGFTNYNSALMSRLTISKDNSKNQVSLKLSSVTAADTAVYFCARANDGVYYAMDYWGQGTLVTVSS VL: DVVMTQSPAFLSVTPGEKVTITCSANSSVNYIHWYQQKPDQAPKKWIYDTSKLASGVPSRFSGSGSGTDYTFTISSLEAEDAATYYCQQWTTNPLTFGQGTKVEIK | 1.4 nM | 4.2 fold |
| humanized TMC-2206 variant hVH3.0/hVL4.0 (antibody, human IgG1, V domains shown, human IgG1/κ constant regions) VH: QVQLQESGPGLVKPSETLSLTCTVSGFSLTNYGIHWVRQPPGKGLEWLGVIWARGFTNYNSALMSRVTISVDTSKNQFSLKLSSVTAADTAVYFCARANDGVYYAMDYWGQGTLVTVSS VL: DVVMTQSPAFLSVTPGEKVTITCSANSSVNYIHWYQQKPDQAPKKWIYDTSKLASGVPSRFSGSGSGTDYTFTISSLEAEDAATYYCQQWTTNPLTFGQGTKVEIK | 118 nM | 358 fold |
| humanized TMC-2206 variant hVH3.0/hVL3.0 (antibody, human IgG1, V domains shown, human IgG1/κ constant regions) VH: QVQLQESGPGLVKPSETLSLTCTVSGFSLTNYGIHWVRQPPGKGLEWLGVIWARGFTNYNSALMSRVTISVDTSKNQFSLKLSSVTAADTAVYFCARANDGVYYAMDYWGQGTLVTVSS VL: QFVLTQSPAFLSVTPGEKVTITCSANSSVNYIHWYQQKPDQAPKLLIYDTSKLASGVPSRFSGSGSGTDYTFTISSLEAEDAATYYCQQWTTNPLTFGQGTKVEIK | 202 nM | 631 fold |

The next lines start with the values.

| Ki | fold shift in potency compared to the hVH1.0, hVL1.0 variant | Binder |
| --- | --- | --- |
| 1.34 nM | 4.2 fold | humanized TMC-2206 variant hVH4.0/hVL3.0 (antibody, human IgG1, V domains shown, human IgG1/κ constant regions) VH: QVQLQESGPGLVKPSETLSLTCTVSGFSLTNYGIHWIRQPPGKGLEWIGVIWARGFTNYNSALMSRLTISKDNSKNQVSLKLSSVTAADTAVYFCARANDGVYYAMDYWGQGTLVTVSS VL: QFVLTQSPAFLSVTPGEKVTITCSANSSVNYIHWYQQKPDQAPKLLIYDTSKLASGVPSRFSGSGSGTDYTFTISSLEAEDAATYYCQQWTTNPLTFGQGTKVEIK |
| 2.6 nM | 7.9 fold | humanized TMC-2206 variant hVH4.0/hVL4.0 (antibody, human IgG1, V domains shown, human IgG1/κ constant regions) VH: QVQLQESGPGLVKPSETLSLTCTVSGFSLTNYGIHWIRQPPGKGLEWIGVIWARGFTNYNSALMSRLTISKDNSKNQVSLKLSSVTAADTAVYFCARANDGVYYAMDYWGQGTLVTVSS VL: DVVMTQSPAFLSVTPGEKVTITCSANSSVNYIHWYQQKPDQAPKKWIYDTSKLASGVPSRFSGSGSGTDYTFTISSLEAEDAATYYCQQWTTNPLTFGQGTKVEIK |

Molecular target: T1, human platelet α2β1 integrin …
Assay: as above
Remark: another data set of the same source
Procedure: as §1

| Ki | Binder |
| --- | --- |
| 0.35 nM | humanized TMC-2206 variant hVH1.0/hVL1.0Q (antibody, human IgG1, V domains shown, human IgG1/κ constant regions; also called VH 1.0 VL 1.0Q) VH: QVQLQESGPGLVKPSETLSLTCTVSGFSLTNYGIHWVRQPPGKGLEWLGVIWARGFTNYNSALMSRLTISKDNSKNQVSLKLSSVTAADTAVYFCARANDGVYYAMDYWGQGTLVTVSS VL: QFVLTQSPAFLSVTPGEKVTITCSAQSSVNYIHWYQQKPDQAPKKWIYDTSKLASGVPSRFSGSGSGTDYTFTISSLEAEDAATYYCQQWTTNPLTFGQGTKVEIK |
| 0.38 nM | humanized TMC-2206 variant hVH14.0/hVL12.0 (antibody, human IgG1, V domains shown, human IgG1/κ constant regions; also called VH 14.0 VL 12.0) VH: QVQLQESGPGLVKPSETLSLTCTVSGFSLTNYGIHWIRQPPGKGLEWLGVIWARGFTNYNSALMSRVTISKDNSKNQVSLKLSSVTAADTAVYYCARANDGVYYAMDYWGQGTLVTVSS VL: DFVMTQSPAFLSVTPGEKVTITCSANSSVNYIHWYQQKPDQAPKKLIYDTSKLASGVPSRFSGSGSGTDFTFTISSLEAEDAATYYCQQWTTNPLTFGQGTKVEIK |
| 0.29 nM | humanized TMC-2206 variant hVH12.0/hVL10.0 (antibody, human IgG1, V domains shown, human IgG1/κ constant regions; also called VH 12.0 VL 10.0) VH: QVQLQESGPGLVKPSETLSLTCTVSGFSLTNYGIHWIRQPPGKGLEWLGVIWARGFTNYNSALMSRLTISKDNSKNQVSLKLSSVTAADTAVYYCARANDGVYYAMDYWGQGTLVTVSS VL: DFVMTQSPAFLSVTPGEKVTITCSANSSVNYIHWYQQKPDQAPKKLIYDTSKLASGVPSRFSGSGSGTDYTFTISSLEAEDAATYYCQQWTTNPLTFGQGTKVEIK |
| 0.33 nM | humanized TMC-2206 variant hVH14.0/hVL12.0Q (antibody, human IgG1, V domains shown, human IgG1/κ constant regions; also called VH 14.0 VL 12.0Q) VH: QVQLQESGPGLVKPSETLSLTCTVSGFSLTNYGIHWIRQPPGKGLEWLGVIWARGFTNYNSALMSRVTISKDNSKNQVSLKLSSVTAADTAVYYCARANDGVYYAMDYWGQGTLVTVSS VL: DFVMTQSPAFLSVTPGEKVTITCSAQSSVNYIHWYQQKPDQAPKKLIYDTSKLASGVPSRFSGSGSGTDFTFTISSLEAEDAATYYCQQWTTNPLTFGQGTKVEIK |
| 0.32 nM | humanized TMC-2206 variant hVH14.0/hVL10.0 (antibody, human IgG1, V domains shown, human IgG1/κ constant regions; also called VH 14.0 VL 10.0) VH: QVQLQESGPGLVKPSETLSLTCTVSGFSLTNYGIHWIRQPPGKGLEWLGVIWARGFTNYNSALMSRVTISKDNSKNQVSLKLSSVTAADTAVYYCARANDGVYYAMDYWGQGTLVTVSS VL: DFVMTQSPAFLSVTPGEKVTITCSANSSVNYIHWYQQKPDQAPKKLIYDTSKLASGVPSRFSGSGSGTDYTFTISSLEAEDAATYYCQQWTTNPLTFGQGTKVEIK |
